Substrate in this data set: c1cc2ccc3cccc4ccc(c1)c2c34
The data set is described as follows: oxidation kinetics. The data set is classed as biochemical, Homo sapiens. As to conditions: heme; NADPH.

B1: P450 1A1 (Homo sapiens) (protein)
chain: MLFPISMSATEFLLASVIFCLVFWVIRASRPQVPKGLKNPPGPWGWPLIGHMLTLGKNPHLALSRMSQQYGDVLQIRIGSTPVVVLSGLDTIRQALVRQGDDFKGRPDLYTFTLISNGQSMSFSPDSGPVWAARRRLAQNGLKSFSIASDPASSTSCYLEEHVSKEAEVLISTLQELMAGPGHFNPYRYVVVSVTNVICAICFGRRYDHNHQELLSLVNLNNNFGEVVGSGNPADFIPILRYLPNPSLNAFKDLNEKFYSFMQKMVKEHYKTFEKGHIRDITDSLIEHCQEKQLDENANVQLSDEKIINIVLDLFGAGFDTVTTAISWSLMYLVMNPRVQRKIQEELDTVIGRSRRPRLSDRSHLPYMEAFILETFRHSSFVPFTIPHSTTRDTSLKGFYIPKGRCVFVNQWQINHDQKLWVNPSEFLPERFLTPDGAIDKVLSEKVIIFGMGKRKCIGETIARWEVFLFLAILLQRVEFSVPLGVKVDMTPIYGLTMKHACCEHFQMQLRS
As usually defined, the Km is the concentration of substrate that gives half-maximal velocity. With B1, the Michaelis constant (Km) is on record as 1.7 µM.

The values are drawn from article PMC5270756.
